In general, Kd refers to the concentration at which binding is half-saturated.

We go through nine molecules from article PMC5538822, “RNA-dependent stabilization of SUV39H1 at constitutive heterochromatin”.

In data set [1] the target is T1, MBP-SUV39H1 1-106 (NTE + chromodomain) (Homo sapiens) (UniProt O43463).
T1 sequence: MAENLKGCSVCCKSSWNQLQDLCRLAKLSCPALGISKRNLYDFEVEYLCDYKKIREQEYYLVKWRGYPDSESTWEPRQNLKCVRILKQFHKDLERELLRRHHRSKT
The experiment in a line: EMSA. Particulars: 20 mM Tris-HCl pH 7.4, 50 mM NaCl, 10% glycerol, ~4 U RNase inhibitor, room temperature 10 min; native gel 0.5X TBE at 25 C; filter binding on nitrocellulose …. For orientation: Mobility shift assays separate free from complexed probe on a gel.

Data set [2] deals with T2, MBP-SUV39H1 1-106 (NTE + chromodomain) (Homo sapiens, UniProt O43463 1-106).
T2 sequence: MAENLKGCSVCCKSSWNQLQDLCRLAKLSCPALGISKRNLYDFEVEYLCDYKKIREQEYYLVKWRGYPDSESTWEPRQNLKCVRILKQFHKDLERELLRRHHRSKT
Description: EMSA; 20 mM Tris-HCl pH 7.4, 50 mM NaCl, 10% glycerol, ~4 U RNase inhibitor, room temperature 10 min; native gel 0.5X TBE at 25 C; filter binding on nitrocellulose in the same buffer. Particulars: protein: recombinant, tags: MBP, label: 32P.

In data set [3] the target is T3, MBP-SUV39H1 42-106 (chromodomain) (Homo sapiens, UniProt O43463 42-106).
T3 sequence: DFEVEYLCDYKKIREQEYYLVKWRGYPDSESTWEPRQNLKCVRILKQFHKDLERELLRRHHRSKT
The data set is described as above. Particulars: protein: recombinant; tags: MBP; label: 32P.

For data set [4], the target named is T4, MBP-SUV39H1 1-41 (N-terminal extension) (Homo sapiens, UniProt O43463 1-41).
T4 chain: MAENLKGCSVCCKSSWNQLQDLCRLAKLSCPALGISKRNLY
The description is as above. Particulars: protein: recombinant; tags: MBP; label: 32P.

For data set [5], the target named is T5, MBP-SUV39H1 107-412 (pre-SET, SET, post-SET) (Homo sapiens, UniProt O43463 107-412).
T5 sequence: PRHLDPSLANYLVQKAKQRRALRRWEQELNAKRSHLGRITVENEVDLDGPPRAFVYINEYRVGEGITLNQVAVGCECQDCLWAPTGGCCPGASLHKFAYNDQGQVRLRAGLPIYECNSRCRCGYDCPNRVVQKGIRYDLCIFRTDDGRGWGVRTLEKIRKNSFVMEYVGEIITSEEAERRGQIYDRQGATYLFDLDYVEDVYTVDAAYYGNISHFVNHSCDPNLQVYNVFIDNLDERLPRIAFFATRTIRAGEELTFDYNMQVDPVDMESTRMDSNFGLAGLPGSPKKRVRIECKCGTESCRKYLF
The description is as above. Particulars: protein: recombinant; tags: MBP; label: 32P.

As for alpha-satellite ssRNA (180mer), the Kd in data set [1] came out at 23 nM.
On the same count and under the same terms, the same measure for beta-actin ssRNA (180mer): 32 nM.

B1: dsRNA MBP 1-50 (dsRNA)
RNA 1: ACCAAAAUCGAAGAAGGUAAACUGGUAAUCUGGAUUAACGGCGAUAAAGG
RNA 2: CCUUUAUCGCCGUUAAUCCAGAUUACCAGUUUACCUUCUUCGAUUUUGGU
Regarding B1, the binding result in data set [2] (blunt) is on record as “binds”.

B2: ssRNA2, antisense MBP 1-50 (ssRNA)
RNA: CCUUUAUCGCCGUUAAUCCAGAUUACCAGUUUACCUUCUUCGAUUUUGGU
For the molecule B2, in data set [2], the Kd worked out at 64 ± 3 nM.

B3: ssRNA1, sense MBP 1-50 (ssRNA)
RNA: ACCAAAAUCGAAGAAGGUAAACUGGUAAUCUGGAUUAACGGCGAUAAAGG
In the case of B3, the Kd in data set [2] was determined as 61 ± 5 nM.

B4: antisense 19mer ssRNA (ssRNA)
RNA: GGGAUCAGUGGUUCCCAUA
With B4, in data set [2], the Kd was 366 ± 22 nM.

B5: ssDNA, sense MBP 1-50 (ssDNA)
DNA: ACCAAAATCGAAGAAGGTAAACTGGTAATCTGGATTAACGGCGATAAAGG
With B5, the binding result in data set [2] was “binds”.

B6: dsDNA MBP 1-50 (dsDNA)
DNA 1: ACCAAAATCGAAGAAGGTAAACTGGTAATCTGGATTAACGGCGATAAAGG
DNA 2: CCTTTATCGCCGTTAATCCAGATTACCAGTTTACCTTCTTCGATTTTGGT
As to B6, in data set [2] (blunt), the Kd was 185 ± 17 nM.

B7: sense 19mer ssRNA (ssRNA)
RNA: AUAUGGGAACCACUGAUCC
As for B7, the Kd in data set [2] came out at 145 ± 9 nM; in data set [3] it was 2310 ± 170 nM; in data set [4] it was 51000 ± 30000 nM. Besides, the binding result in data set [5] is listed as “no binding”.
